Source: article PMC9440017, “Structural basis for Gemin5 decamer-mediated mRNA binding” (Nature Communications, 2022)
Residue numbers refer to the chain shown, from its start. Names may count otherwise. “And” between values parts separate entries of the source, which are not always exact repeats. Identical values can stand only once.

B1: G5C K1363A/K1436A/R1437A/R1444A/K1492A mutant (domain or fragment, human, UniProt Q8TEQ6 841-1508, looked up)
chain: KKRKARSLLPLSTSLDHRSKEELHQDCLVLATAKHSRELNEDVSADVEERFHLGLFTDRATLYRMIDIEGKGHLENGHPELFHQLMLWKGDLKGVLQTAAERGELTDNLVAMAPAAGYHVWLWAVEAFAKQLCFQDQYVKAASHLLSIHKVYEAVELLKSNHFYREAIAIAKARLRPEDPVLKDLYLSWGTVLERDGHYAVAAKCYLGATCAYDAAKVLAKKGDAASLRTAAELAAIVGEDELSASLALRCAQELLLANNWVGAQEALQLHESLQGQRLVFCLLELLSRHLEEKQLSEGKSSSSYHTWNTGTEGPFVERVTAVWKSIFSLDTPEQYQEAFQKLQNIKYPSATNNTPAKQLLLHICHDLTLAVLSQQMASWDEAVQALLRAVVRSYDSGSFTIMQEVYSAFLPDGCDHLRDKLGDHQSPATPAFKSLEAFFLYGRLYEFWWSLSRPCPNSSVWVRAGHRTLSVEPSQQLDTASTEETDPETSQPEPNRPSELDLRLTEEGERMLSTFKELFSEAHASLQNSQRTVAEVQETLAEMIRQHQKSQLCKSTANGPDKNEPEVEAEQPLCSSQSQCKEEKNEPLSLPELTAALTEANQAMAKFPESIKAWPFPDVLECCLVLLLIRSHFPGCLAQEMQQQAQELLQAYGNTKTYRRHCQTFCM
notes: Gemin5, human, residues 841-1508 with K1363A, K1436A, R1437A, R1444A and K1492A; also called M5; source: E. coli BL21 (DE3), purified in the same way as wild-type G5C; not shown: His6, N-terminal, cleaved; copies: 10
B2: Gemin5 C-terminal fragment (Gemin5 841-1508), wild type (domain or fragment, human, UniProt Q8TEQ6 841-1508, looked up)
chain: B1 chain with A523K, A596K, A597R, A604R, A652K
notes: Gemin5, human, residues 841-1508 of the 1508-residue protein; Homodecamer (dimer of pentamers) by cryo-EM and static light scattering; also called G5C; G5C wild type; source: E. coli BL21 (DE3), purified (Ni-NTA, TEV cleavage, Superdex 200 gel filtration, mono Q); not shown: His6, N-terminal, cleaved; copies: 10
B3: G5C R1035A/K1061A/K1062A/R1090A quadruple mutant (domain or fragment, human, UniProt Q8TEQ6 841-1508, looked up)
chain: B1 chain with R195A, K221A, K222A, R250A, A523K, A596K, A597R, A604R, A652K
notes: Gemin5, human, residues 841-1508 with R1035A, K1061A, K1062A and R1090A; also called M4; source: E. coli BL21 (DE3), purified in the same way as wild-type G5C; not shown: His6, N-terminal, cleaved; copies: 10
B4: G5C L1381D/M1384D/I1385D triple mutant (domain or fragment, human, UniProt Q8TEQ6 841-1508, looked up)
chain: B1 chain with A523K, L541D, M544D, I545D, A596K, A597R, A604R, A652K
notes: Gemin5, human, residues 841-1508 with L1381D, M1384D and I1385D; also called M2; source: E. coli BL21 (DE3), purified in the same way as wild-type G5C; not shown: His6, N-terminal, cleaved
B5: G5C L1469H single mutant (domain or fragment, human, UniProt Q8TEQ6 841-1508, looked up)
chain: B1 chain with A523K, A596K, A597R, A604R, L629H, A652K
notes: Gemin5, human, residues 841-1508 with L1469H; also called M3; source: E. coli BL21 (DE3), purified in the same way as wild-type G5C; not shown: His6, N-terminal, cleaved; copies: 10
B6: G5C L1468D/L1469D double mutant (domain or fragment, human, UniProt Q8TEQ6 841-1508, looked up)
chain: B1 chain with A523K, A596K, A597R, A604R, L628D, L629D, A652K
notes: Gemin5, human, residues 841-1508 with L1468D and L1469D; also called M1; source: E. coli BL21 (DE3), purified in the same way as wild-type G5C; not shown: His6, N-terminal, cleaved

Tests used:
[1] = molecular target: G5C (Gemin5 841-1508) wild type (Homo sapiens) (UniProt Q8TEQ6); experiment: fluorescence polarization; conditions: EMSA: 20 mM Tris-HCl pH 7.5, 100 mM NaCl, 1 h on ice, 0.35 uM RNA; FP: 20 mM Tris-HCl pH 7.5, 150 mM NaCl, 10 nM RNA (40 nM U7), protein 0-41 uM, temperature …
G5C A951E (Homo sapiens) = experiment: fluorescence polarization; conditions: EMSA: 20 mM Tris-HCl pH 7.5, 100 mM NaCl, 1 h on ice, 0.35 uM RNA; FP: 20 mM Tris-HCl pH 7.5, 150 mM NaCl, 10 nM RNA (40 nM U7), protein 0-41 uM, temperature …
G5C M4 (Homo sapiens) = experiment: fluorescence polarization; conditions: EMSA: 20 mM Tris-HCl pH 7.5, 100 mM NaCl, 1 h on ice, 0.35 uM RNA; FP: 20 mM Tris-HCl pH 7.5, 150 mM NaCl, 10 nM RNA (40 nM U7), protein 0-41 uM, temperature …
[2] = molecular target: the molecule itself; experiment: SEC; size-exclusion chromatography of purified G5C wild type and mutants against a molecular weight marker; self-association
[3] = molecular target: the molecule itself; experiment: SEC-MALS; Superose 6 Increase 10/300 GL coupled to DAWN HELEOS 8+; 100 ul at 1 mg/ml; 20 mM Tris-HCl pH 7.5, 330 mM NaCl; self-association

Molecule	stoichiometry N [2]	other results
SL1 RNA, FAM (FP)		Kd [1]: 6.5 µM; Kd (G5C A951E (Homo sapiens)): 32 µM; Kd (G5C M4 (Homo sapiens)): 138 µM
B1	10	
B2		stoichiometry N [3]: 10
B3	10	
B4	2 and 4	
B5	10	
B6	2 and 4	
